Literature values, collected in PMC6189303.

Biological target: L1-CAM (UniProt P32004)
UniProt P32004, sequence (P32004 20-1120): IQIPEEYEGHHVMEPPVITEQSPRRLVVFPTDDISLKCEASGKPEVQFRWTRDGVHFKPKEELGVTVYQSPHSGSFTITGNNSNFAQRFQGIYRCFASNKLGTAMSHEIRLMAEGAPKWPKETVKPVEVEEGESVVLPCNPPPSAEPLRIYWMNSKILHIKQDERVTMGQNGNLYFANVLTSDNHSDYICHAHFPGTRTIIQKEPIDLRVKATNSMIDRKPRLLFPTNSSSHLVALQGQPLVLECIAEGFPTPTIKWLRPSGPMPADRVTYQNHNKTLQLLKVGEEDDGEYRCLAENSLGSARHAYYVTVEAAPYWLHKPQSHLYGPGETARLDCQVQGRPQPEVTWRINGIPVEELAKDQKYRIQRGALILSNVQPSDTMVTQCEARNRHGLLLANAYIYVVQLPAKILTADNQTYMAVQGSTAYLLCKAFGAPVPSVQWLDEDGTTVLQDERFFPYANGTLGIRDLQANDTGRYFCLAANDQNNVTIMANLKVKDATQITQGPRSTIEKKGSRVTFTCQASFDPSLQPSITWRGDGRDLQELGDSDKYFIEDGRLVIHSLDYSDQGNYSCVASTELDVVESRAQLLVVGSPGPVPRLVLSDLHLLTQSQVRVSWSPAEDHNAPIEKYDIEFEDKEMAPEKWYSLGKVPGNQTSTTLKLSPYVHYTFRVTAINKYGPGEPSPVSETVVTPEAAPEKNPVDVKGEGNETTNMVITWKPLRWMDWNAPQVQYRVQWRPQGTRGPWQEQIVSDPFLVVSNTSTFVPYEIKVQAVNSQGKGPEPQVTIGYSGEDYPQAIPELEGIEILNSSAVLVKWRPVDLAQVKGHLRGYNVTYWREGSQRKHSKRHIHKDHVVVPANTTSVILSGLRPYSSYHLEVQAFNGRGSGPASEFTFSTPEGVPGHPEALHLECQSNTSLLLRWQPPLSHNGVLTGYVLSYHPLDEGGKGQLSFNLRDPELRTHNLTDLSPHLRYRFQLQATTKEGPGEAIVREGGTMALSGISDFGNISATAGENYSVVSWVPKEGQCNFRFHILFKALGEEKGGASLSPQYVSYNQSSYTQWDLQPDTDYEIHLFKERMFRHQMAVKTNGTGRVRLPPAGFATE

Substance: Neurocan (from UniProt O14594)
- Kd: 1 nM
